Assay [1] deals with T1, FcγRIIb extracellular domain with C-terminal His tag (human, UniProt P31994 43-217).
T1 construct: extracellular domain; Soluble receptor expressed in FreeStyle293 cells and used as analyte in Biacore; also called FcgRIIb; 2b; not shown: His tag at the C terminus
T1 sequence (looked up): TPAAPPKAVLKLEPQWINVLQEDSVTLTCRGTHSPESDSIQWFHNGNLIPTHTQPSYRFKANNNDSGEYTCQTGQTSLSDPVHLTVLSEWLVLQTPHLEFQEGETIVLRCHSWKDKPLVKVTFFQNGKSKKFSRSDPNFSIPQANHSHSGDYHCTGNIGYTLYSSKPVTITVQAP
Briefly: SPR Biacore, relative binding amount.

In assay [2] the target is T2, FcγRIa extracellular domain with C-terminal His tag (human, UniProt P12314 16-292).
T2 construct: extracellular domain; Soluble receptor expressed in FreeStyle293 cells and used as analyte in Biacore; also called FcgRI; 1a; not shown: His tag at the C terminus
Briefly: SPR Biacore, relative binding amount. (Surface plasmon resonance follows binding to a sensor surface in real time, without labels.)
T2 sequence (P12314 16-292): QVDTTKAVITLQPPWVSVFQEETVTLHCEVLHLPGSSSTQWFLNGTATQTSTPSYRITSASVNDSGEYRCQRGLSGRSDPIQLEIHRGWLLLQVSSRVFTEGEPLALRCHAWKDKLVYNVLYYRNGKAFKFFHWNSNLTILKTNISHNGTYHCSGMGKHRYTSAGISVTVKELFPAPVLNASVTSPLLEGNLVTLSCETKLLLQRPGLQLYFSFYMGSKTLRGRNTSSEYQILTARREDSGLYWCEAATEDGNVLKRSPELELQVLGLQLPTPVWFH

The target in assay [3] is T3, FcγRIa extracellular domain with C-terminal His tag (human, UniProt P12314 16-292).
T3 construct: extracellular domain; Expressed in FreeStyle293 cells; analyte in the Biacore assay; also called FcgRI; 1a; not shown: His tag at the C terminus
Briefly: SPR (Biacore), antibody captured on antigen-peptide chip, FcγR as analyte; relative binding.
T3 sequence (P12314 16-292): as above

The target in assay [4] is T4, FcγRIIb extracellular domain with C-terminal His tag (human, UniProt P31994 43-217).
T4 construct: extracellular domain; Expressed in FreeStyle293 cells; analyte in the Biacore assay; also called FcgRIIb; 2b; not shown: His tag at the C terminus
T4 sequence (looked up): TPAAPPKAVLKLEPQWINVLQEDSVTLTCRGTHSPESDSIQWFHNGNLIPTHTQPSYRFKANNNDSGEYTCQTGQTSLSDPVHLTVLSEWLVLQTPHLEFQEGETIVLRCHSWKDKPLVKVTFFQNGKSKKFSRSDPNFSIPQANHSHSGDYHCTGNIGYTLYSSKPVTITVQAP
Described as above.

Our source for the He/Con_2b and He/Con_1a values is patent publication US20180155451A1 (published 2018).

B1: heterodimerized antibody GpH7-A5/GpH7-B3 variant E333_08L/GpL16-k0 (antibody, human IgG1, kappa)
heavy 1: not shown
heavy 2: not shown
light: DIVMTQSPLSLPVTPGEPASISCQASESLVHSNRNTYLHWYLQKPGQSPQLLIYKVSNRFSGVPDRFSGSGSGTDFTLKISRVEAEDVGVYYCSQNTHVPPTFGQGTKVEIERTVAAPSVFIFPPSDEQLKSGTASVVCLLNNFYPREAKVQWKVDNALQSGNSQESVTEQDSKDSTYSLSSTLTLSKADYEKHKVYACEVTHQGLSSPVTKSFNRGEC
notes: Substitution in only one H chain (GpH7-B3 side); also called He Ab
On to B1, for which, in assay [1], the He/Con_2b is 95 % of GpH7-A5/GpH7-B3/GpL16-k0 (=100). The He/Con_1a in assay [2] was 102 % of GpH7-A5/GpH7-B3/GpL16-k0 (=100).

B2: heterodimerized antibody GpH7-A5/GpH7-B3 variant E333_09D/GpL16-k0 (antibody, human IgG1, kappa)
heavy 1: not shown
heavy 2: not shown
light: DIVMTQSPLSLPVTPGEPASISCQASESLVHSNRNTYLHWYLQKPGQSPQLLIYKVSNRFSGVPDRFSGSGSGTDFTLKISRVEAEDVGVYYCSQNTHVPPTFGQGTKVEIERTVAAPSVFIFPPSDEQLKSGTASVVCLLNNFYPREAKVQWKVDNALQSGNSQESVTEQDSKDSTYSLSSTLTLSKADYEKHKVYACEVTHQGLSSPVTKSFNRGEC
notes: as for B1
Consider B2, for which the He/Con_2b in assay [1] is 94.3 % of GpH7-A5/GpH7-B3/GpL16-k0 (=100). In addition, the He/Con_1a in assay [2] was 104 % of GpH7-A5/GpH7-B3/GpL16-k0 (=100).

B3: GpH7-A5/GpH7-B3 variant Y300_20W/GpL16-k0 (He Ab) (antibody, human IgG1, kappa)
heavy 1: not shown
heavy 2: not shown
light: DIVMTQSPLSLPVTPGEPASISCQASESLVHSNRNTYLHWYLQKPGQSPQLLIYKVSNRFSGVPDRFSGSGSGTDFTLKISRVEAEDVGVYYCSQNTHVPPTFGQGTKVEIERTVAAPSVFIFPPSDEQLKSGTASVVCLLNNFYPREAKVQWKVDNALQSGNSQESVTEQDSKDSTYSLSSTLTLSKADYEKHKVYACEVTHQGLSSPVTKSFNRGEC
notes: Heterodimerized anti-glypican-3 IgG1; the mutation stands in the GpH7-B3 chain only
Take B3: the He/Con_1a in assay [3] is 112 % of GpH7-A5/GpH7-B3/GpL16-k0 (=100). In addition, the He/Con_2b in assay [4] was 84.1 % of GpH7-A5/GpH7-B3/GpL16-k0 (=100).

B4: heterodimerized antibody GpH7-A5/GpH7-B3 variant I336_02A/GpL16-k0 (antibody, human IgG1, kappa)
heavy 1: not shown
heavy 2: not shown
light: DIVMTQSPLSLPVTPGEPASISCQASESLVHSNRNTYLHWYLQKPGQSPQLLIYKVSNRFSGVPDRFSGSGSGTDFTLKISRVEAEDVGVYYCSQNTHVPPTFGQGTKVEIERTVAAPSVFIFPPSDEQLKSGTASVVCLLNNFYPREAKVQWKVDNALQSGNSQESVTEQDSKDSTYSLSSTLTLSKADYEKHKVYACEVTHQGLSSPVTKSFNRGEC
notes: as for B1
As for B4, the He/Con_2b in assay [1] is 84.9 % of GpH7-A5/GpH7-B3/GpL16-k0 (=100). Moreover, in assay [2], the He/Con_1a was 106 % of GpH7-A5/GpH7-B3/GpL16-k0 (=100).

B5: heterodimerized antibody GpH7-A5/GpH7-B3 variant E333_12R/GpL16-k0 (antibody, human IgG1, kappa)
heavy 1: not shown
heavy 2: not shown
light: DIVMTQSPLSLPVTPGEPASISCQASESLVHSNRNTYLHWYLQKPGQSPQLLIYKVSNRFSGVPDRFSGSGSGTDFTLKISRVEAEDVGVYYCSQNTHVPPTFGQGTKVEIERTVAAPSVFIFPPSDEQLKSGTASVVCLLNNFYPREAKVQWKVDNALQSGNSQESVTEQDSKDSTYSLSSTLTLSKADYEKHKVYACEVTHQGLSSPVTKSFNRGEC
notes: as for B1
B5: in assay [1], the He/Con_2b is 80.4 % of GpH7-A5/GpH7-B3/GpL16-k0 (=100). Further, the He/Con_1a in assay [2] was 102 % of GpH7-A5/GpH7-B3/GpL16-k0 (=100).

B6: GpH7-A5/GpH7-B3 variant Y300_11K/GpL16-k0 (He Ab) (antibody, human IgG1, kappa)
heavy 1: not shown
heavy 2: not shown
light: DIVMTQSPLSLPVTPGEPASISCQASESLVHSNRNTYLHWYLQKPGQSPQLLIYKVSNRFSGVPDRFSGSGSGTDFTLKISRVEAEDVGVYYCSQNTHVPPTFGQGTKVEIERTVAAPSVFIFPPSDEQLKSGTASVVCLLNNFYPREAKVQWKVDNALQSGNSQESVTEQDSKDSTYSLSSTLTLSKADYEKHKVYACEVTHQGLSSPVTKSFNRGEC
notes: as for B3
With B6, in assay [3], the He/Con_1a was 107 % of GpH7-A5/GpH7-B3/GpL16-k0 (=100). Further, in assay [4], the He/Con_2b was 51.6 % of GpH7-A5/GpH7-B3/GpL16-k0 (=100).

B7: heterodimerized antibody GpH7-A5/GpH7-B3 variant E333_15Y/GpL16-k0 (antibody, human IgG1, kappa)
heavy 1: not shown
heavy 2: not shown
light: DIVMTQSPLSLPVTPGEPASISCQASESLVHSNRNTYLHWYLQKPGQSPQLLIYKVSNRFSGVPDRFSGSGSGTDFTLKISRVEAEDVGVYYCSQNTHVPPTFGQGTKVEIERTVAAPSVFIFPPSDEQLKSGTASVVCLLNNFYPREAKVQWKVDNALQSGNSQESVTEQDSKDSTYSLSSTLTLSKADYEKHKVYACEVTHQGLSSPVTKSFNRGEC
notes: as for B1
Consider B7, for which the He/Con_2b in assay [1] was 94.4 % of GpH7-A5/GpH7-B3/GpL16-k0 (=100). Further, the He/Con_1a in assay [2] is 101 % of GpH7-A5/GpH7-B3/GpL16-k0 (=100).

B8: heterodimerized antibody GpH7-A5/GpH7-B3 variant E333_13S/GpL16-k0 (antibody, human IgG1, kappa)
heavy 1: not shown
heavy 2: not shown
light: DIVMTQSPLSLPVTPGEPASISCQASESLVHSNRNTYLHWYLQKPGQSPQLLIYKVSNRFSGVPDRFSGSGSGTDFTLKISRVEAEDVGVYYCSQNTHVPPTFGQGTKVEIERTVAAPSVFIFPPSDEQLKSGTASVVCLLNNFYPREAKVQWKVDNALQSGNSQESVTEQDSKDSTYSLSSTLTLSKADYEKHKVYACEVTHQGLSSPVTKSFNRGEC
notes: as for B1
For the molecule B8, the He/Con_2b in assay [1] was 81.8 % of GpH7-A5/GpH7-B3/GpL16-k0 (=100). Further, the He/Con_1a in assay [2] was 103 % of GpH7-A5/GpH7-B3/GpL16-k0 (=100).

B9: heterodimerized antibody GpH7-A5/GpH7-B3 variant E333_14T/GpL16-k0 (antibody, human IgG1, kappa)
heavy 1: not shown
heavy 2: not shown
light: DIVMTQSPLSLPVTPGEPASISCQASESLVHSNRNTYLHWYLQKPGQSPQLLIYKVSNRFSGVPDRFSGSGSGTDFTLKISRVEAEDVGVYYCSQNTHVPPTFGQGTKVEIERTVAAPSVFIFPPSDEQLKSGTASVVCLLNNFYPREAKVQWKVDNALQSGNSQESVTEQDSKDSTYSLSSTLTLSKADYEKHKVYACEVTHQGLSSPVTKSFNRGEC
notes: as for B1
With B9, the He/Con_2b in assay [1] is 86.1 % of GpH7-A5/GpH7-B3/GpL16-k0 (=100). Also, the He/Con_1a in assay [2] was 102 % of GpH7-A5/GpH7-B3/GpL16-k0 (=100).
